B1: murine VEGF-B186 (ligand)
chain: PVAQFDGPSHQKKVVPWIDVYARATCQPREVVVPLSMELMGNVVKQLVPSCVTVQRCGGCCPDDGLECVPTGQHQVRMQILMIQYPSSQLGEMSLEEHSQCECRPKKKESAVKPDRVAIPHHRPQPRSVPGWDSTPGASSPADIIHPTPAPGSSARLAPSAVNALTPGPAAAAADAAASSIAKGGA
notes: Expressed in Cos-1 cells (pSG5) or Sf21 insect cells; The form secreted from Cos-1 cells carries an unidentified covalent modification (Mr 32,000 against 24,000 in cells); it forms disulfide-linked homodimers and heterodimers with VEGF165; also called mVEGF-B186; mouse VEGF-B186
B2: human VEGF-B167 (ligand)
chain: PVSQPDAPGHQRKVVSWIDVYTRATCQPREVVVPLTVELMGTVAKQLVPSCVTVQRCGGCCPDDGLECVPTGQHQVRMQILMIRYPSSQLGEMSLEEHSQCECRPKKKDSAVKPDSPRPLCPRCTQHHQRPDPRTCRCRCRRRSFLRCQGRGLELNPDTCRCRKLRR
notes: Expressed from cDNA in 293EBNA cells (pREP7) or in Sf9/Sf21 insect cells; it forms disulfide-linked homodimers and heterodimers with VEGF165; also called hVEGF-B167; vascular endothelial growth factor B

Key:
[1] = target: the molecule itself; assay: SDS-PAGE and immunoblot of Sf21 culture medium
Experimental: Sf21 cells [see Vaughn et al., In Vitro, 13:213-17 (1977)] were infected with the baculovirus stocks of Example 10 at a multiplicity of infection of 10 virus particles per cell. The infected Sf21 cells were grown in roller flasks and seeded at a density of 2×10⁶ cells per ml of serum free medium (Sf900II, Gibco-BRL) for 96 hours. Culture media and cells were then harvested. Aliquots of the cell lysates and of the media were analyzed by SDS-PAGE. Total protein patterns were visualized by staining the gels with Coomassie Brilliant Blue and the presence of expressed VEGF-B isoforms were visualized by immunoblotting using specific antipeptide antibodies to human and mouse VEGF-B as described above in Example 8. […] Both proteins were retained intracellularly in the infected cells and not released into the medium. In contrast, mouse VEGF-B-₁₈₆ was readily secreted into the medium in a dimeric form.

[2] = target: T1, human VEGF165 (human, UniProt P15692 27-191); assay: cotransfected Cos-1 cells; immunoprecipitation of media and lysates, reducing SDS-PAGE (FIG. 23B)
T1 construct: mature; Expressed from cDNA in 293EBNA cells (pREP7) or Cos-1 cells (pSG5)
T1 sequence (P15692 other isoform, or with tags, fused parts or gaps): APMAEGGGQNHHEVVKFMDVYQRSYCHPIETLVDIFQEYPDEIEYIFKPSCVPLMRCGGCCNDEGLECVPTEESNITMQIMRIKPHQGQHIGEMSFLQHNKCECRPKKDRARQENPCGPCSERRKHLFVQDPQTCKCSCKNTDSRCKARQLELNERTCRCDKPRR
Experimental: cDNA inserts encoding mouse VEGF-B₁₈₆ and human VEGF₁₆₅ were cloned into the pSG5 expression vector [Green et al., Nucleic Acid Res., 16:369 (1988)]. Cos-1 cells were maintained in minimal essential medium (MEM) containing 10% fetal calf serum, 2 mM glutamine and appropriate antibiotics. For transfections, the cells were replated into 90 mm Petri dishes. The cells were transfected with the expression vectors, separately or in combination, using calcium phosphate precipitation and incubated for 36-48 hours. Monolayers of cells were incubated in medium free of methionine and cysteine for 30 min and then incubated in the same medium containing 100 μCi/ml of [³⁵S]-methionine and [³⁵S]-cysteine for 2 hours (Promix Amersham Inc.).
For the pulse-chase experiments, the cells were labeled for 30 minutes, washed twice with normal medium and then incubated for up to 6 hours in MEM without fetal calf serum. Media were collected after the chase period and the cells were solubilized in 10 mM Tris buffer pH 7.5 containing 50 mM NaCl, 0.5% deoxycholate, 0.5% nonidet P-40 and 0.1% SDS. Aliquots of the media and the cell lysates were subjected to immunoprecipitation using the specific antiserum to mouse VEGF-B from Example 8a and a specific antiserum to human VEGF commercially available from R&D Systems. The precipitates were analyzed by SDS-PAGE. […]

[3] = target: T1, human VEGF165; assay: coexpression in transfected cells, immunoprecipitation
Source text: (§1) The biochemical properties of human VEGF-B₁₆₇ were examined in transfected human embryonic kidney 293EBNA cells (Invitrogen, Inc.). cDNA inserts encoding human VEGF-B₁₆₇ and human VEGF₁₆₅ [see Keck et al., Science, Vol. 246, pages 1309-312 (1989)] were individually cloned into the pREP7 expression vector (Invitrogen, Inc.). Human embryo kidney 293EBNA cells (expressing Epstein-Barr virus nuclear antigen-1) were transfected by transient transfection with the respective expression plasmids using calcium phosphate precipitation, and the cells were incubated for 48 hours. As a control, cells also were transfected with an expression vector containing the VEGF-B₁₆₇ cDNA in reverse orientation. Monolayers of cells were incubated in methionine-free and cysteine-free medium for 30 minutes followed by labeling with 100 μCi/ml [³⁵S]methionine and [³⁵S]cysteine (Promix, Amersham Inc.) in the same medium for 2 hours. The labeling medium was replaced with normal medium without serum, and labelled proteins were chased for 6 hours. Heparin was included during the chase when indicated (100 μg/ml). Media were collected after the chase period, and cells were solubilized in 10 mM Tris pH 7.5, 50 mM NaCl, 0.5% sodium deoxycholate, 0.5% Nonidet P-40, 0.1% SDS and 0.1 U/ml aprotinin. […]

[4] = target: the molecule itself; assay: immunoprecipitation and SDS-PAGE, transfected 293EBNA cells
Source text: as §1, with “hours.” for “hours. The labeling medium was replaced with normal medium without serum, and labelled proteins were chased for 6 hours. Heparin was included during the chase when indicated (100 μg/ml). Media were collected after the chase period, and cells were solubilized in 10 mM Tris pH 7.5, 50 mM NaCl, 0.5% sodium deoxycholate, 0.5% Nonidet P-40, 0.1% SDS and 0.1 U/ml aprotinin.”
VEGF-B₁₆₇ was expressed in the cells transfected with the plasmids containing the VEGF-B₁₆₇ DNA. Aliquots of the culture supernatants from cells treated or untreated with heparin and detergent solubilized cell lysates were subjected to immunoprecipitation with the specific antipeptide antiserum to VEGF-B obtained as described in Example 8 and analyzed by SDS-PAGE under reducing conditions unless otherwise indicated. […]

Binder	binding result [1]	binding result [2]	binding result [3]	binding result [4]
B1	binds	binds	–	–
B2	–	–	binds	binds
